Experimental findings from PMC7447803, “DEPS-1 is required for piRNA-dependent silencing and PIWI condensate organisation in Caenorhabditis elegans” (Nature Communications, 2020) are described below.

Test in all cases: MST; one partner labelled with atto-488 NHS ester at a constant amount, unlabelled partner serially diluted 1:2; 30 mM HEPES pH 7.5, 100 mM K-Ac, 2 mM Mg-Ac, 14 mM BME, 0.01% NP-40; apparent Kd by the law of mass action
The target of test [1] is DEPS-1 PBS motif peptide (C. elegans).
Test [2] has as its target MBP-tagged full-length DEPS-1 (C. elegans) (UniProt Q9N303).
Test [3] concerns the target N-terminal fragment of DEPS-1 (DEPS-1^frag1) (C. elegans) (UniProt Q9N303).
The target of test [4] is T1, MBP-tagged full-length PRG-1 (C. elegans, UniProt P90786 1-824, Atto-594 label (in the cluster imaging only)).
T1 construct: PRG-1, the PIWI protein of C. elegans, full length; Cloned into pMAL-C5X; Unlabelled in the MST titration; also called MBP-PRG-1; MBP-PRG; source: E. coli BL21 (DE3), purified (RNaseA-treated lysate, amylose resin, size-exclusion chromatography)
T1 sequence (looked up): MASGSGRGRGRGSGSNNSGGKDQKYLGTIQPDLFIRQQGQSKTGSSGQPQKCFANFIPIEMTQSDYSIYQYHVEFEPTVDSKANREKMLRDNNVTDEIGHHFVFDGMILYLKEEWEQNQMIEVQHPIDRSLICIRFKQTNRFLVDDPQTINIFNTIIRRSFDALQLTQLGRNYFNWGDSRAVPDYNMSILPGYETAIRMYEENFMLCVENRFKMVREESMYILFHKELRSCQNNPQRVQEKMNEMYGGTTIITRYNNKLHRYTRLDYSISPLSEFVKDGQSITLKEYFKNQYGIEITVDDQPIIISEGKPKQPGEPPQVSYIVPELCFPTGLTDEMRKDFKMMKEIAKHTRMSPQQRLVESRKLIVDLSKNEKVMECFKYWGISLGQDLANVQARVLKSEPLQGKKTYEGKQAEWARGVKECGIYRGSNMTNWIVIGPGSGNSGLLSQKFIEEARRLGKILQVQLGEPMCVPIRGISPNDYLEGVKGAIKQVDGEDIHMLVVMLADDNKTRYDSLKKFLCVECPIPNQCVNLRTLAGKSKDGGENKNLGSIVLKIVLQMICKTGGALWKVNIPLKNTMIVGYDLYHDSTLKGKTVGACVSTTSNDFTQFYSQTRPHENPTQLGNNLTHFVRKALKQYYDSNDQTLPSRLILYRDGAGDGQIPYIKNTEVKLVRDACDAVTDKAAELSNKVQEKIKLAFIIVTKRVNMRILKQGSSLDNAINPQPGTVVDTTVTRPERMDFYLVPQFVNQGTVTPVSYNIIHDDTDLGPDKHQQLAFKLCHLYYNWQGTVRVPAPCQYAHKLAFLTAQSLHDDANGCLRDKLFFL
The conditions noted are these: both partners purified.

Take “MBP-tagged PRG-1 PIWI domain (from UniProt P90786 1-824) (domain or fragment)”: the figures for the Kd in test [1], in test [2] and in test [3] were 1900 nM, 349 nM and 151 nM, respectively.

B1: MBP-tagged full-length DEPS-1 (natural protein, C. elegans, UniProt Q9N303 1-619, looked up)
chain: MSERQSKYFDYQGIVISSTGQDNQDSETDLVYLIQAHGKAAPKNIMYGVSKCAFVPTNLERNFDNIEEAKNLERRSKIPLKFGEVILWNESDCDHDKRIILHIKREKPIYEASSSRNGLILKVGGVIQPTSTTSFWTPLCTVTMPETEATRAEPDVWLYAWIRFETTMKSGLDPFNMTATFESFDSCDPSDQARVCEAPWNAGSPDSKFGVWRPDPKPADSDDEIDIEPREGWHLPEDKWAEVIKMQLGLYVGERLLICKELSQFDFIIPLQKPFSRGTDKTLIYPAVGEYFHFSAIWSMQHNGFLIYELQPVPLLRQHVTSVNGNLLTRVVPASIRGLFVDKEGTLGLIDDPHHLLSFFEFHPAGYEFLKAMAEVRAVRTSENKSVRYRIVRTSGMSIFENWLRDTQFVVGPVKGIRINEDTVICAKHPNVYFKIPNNLKEGIPIGGGVQFVGKRQAGVDSEIMITECSPCPAFTCKNYSVSGDTRLFQVYLKPNCDHEQLAESDSMGFVDFRELETPCRGKFLAWVRESITVNDCRRAATIMEVCSTAICPPLIAMSANSSRATSARTTPAGSSIGSRSSIQSRASAATSVSSNRFVGPSSRRTPSGTPQSSTSSRV
modifications: atto-488 NHS ester label
notes: DEPS-1 (Defective P granules and Sterile-1), C. elegans P granule protein, full length; Cloned into pMAL-C5X; Labelled partner (10 nM) in the MST with MBP-PRG-1; also called MBP-DEPS-1; Defective P granules and Sterile-1; source: E. coli BL21 (DE3), purified (RNaseA-treated lysate, amylose resin, size-exclusion chromatography)
With B1, the Kd in test [4] amounted to 855 ± 133 nM.
